In the supplement of paper PMC10567573:

B1: FEM1A (parent)
chain: PCCSSSPEEPLNGESYESCCPTSR

Variants of: B1
Assay: protein stability index of a GFP-peptide fusion (GPS, HEK-293T) (PSI 1-6); higher = more stable
Settings: c terminus: a fixed tail appended
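Note: lentivirally expressed fusions sorted by FACS into six bins by GFP to DsRed ratio, PSI derived from sequencing read proportions per bin multiplied by bin number.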

| Variant | protein stability index |
| --- | --- |
| ECCSSSPEEPLNGESYESCCPTSR [P1E] | 4.44 |
| YCCSSSPEEPLNGESYESCCPTSR [P1Y] | 3.26 |
| VCCSSSPEEPLNGESYESCCPTSR [P1V] | 3.84 |
| HCCSSSPEEPLNGESYESCCPTSR [P1H] | 3.85 |
| RCCSSSPEEPLNGESYESCCPTSR [P1R] | 3.47 |
| SCCSSSPEEPLNGESYESCCPTSR [P1S] | 3.54 |
| GCCSSSPEEPLNGESYESCCPTSR [P1G] | 4.6 |
| PQCSSSPEEPLNGESYESCCPTSR [C2Q] | 4.89 |
| PGCSSSPEEPLNGESYESCCPTSR [C2G] | 4.19 |
| PICSSSPEEPLNGESYESCCPTSR [C2I] | 3.92 |
| PKCSSSPEEPLNGESYESCCPTSR [C2K] | 4.65 |
| PFCSSSPEEPLNGESYESCCPTSR [C2F] | 4.55 |
| PVCSSSPEEPLNGESYESCCPTSR [C2V] | 5.21 |
| PWCSSSPEEPLNGESYESCCPTSR [C2W] | 4.37 |
| PECSSSPEEPLNGESYESCCPTSR [C2E] | 4.77 |
| PDCSSSPEEPLNGESYESCCPTSR [C2D] | 5.12 |
| PSCSSSPEEPLNGESYESCCPTSR [C2S] | 4.21 |
| PTCSSSPEEPLNGESYESCCPTSR [C2T] | 5.23 |
| PNCSSSPEEPLNGESYESCCPTSR [C2N] | 5.15 |
| PYCSSSPEEPLNGESYESCCPTSR [C2Y] | 4.62 |
| PPCSSSPEEPLNGESYESCCPTSR [C2P] | 5.66 |
| PMCSSSPEEPLNGESYESCCPTSR [C2M] | 4.98 |
| PHCSSSPEEPLNGESYESCCPTSR [C2H] | 4.79 |
| PLCSSSPEEPLNGESYESCCPTSR [C2L] | 4.75 |

| Variant | protein stability index |
| --- | --- |
| PCCQSSPEEPLNGESYESCCPTSR [S4Q] | 3.67 |
| PCCLSSPEEPLNGESYESCCPTSR [S4L] | 2.98 |
| PCCKSSPEEPLNGESYESCCPTSR [S4K] | 3.65 |
| PCCPSSPEEPLNGESYESCCPTSR [S4P] | 4.58 |
| PCCRSSPEEPLNGESYESCCPTSR [S4R] | 3.14 |
| PCCYSSPEEPLNGESYESCCPTSR [S4Y] | 3.37 |
| PCCESSPEEPLNGESYESCCPTSR [S4E] | 3.87 |
| PCCGSSPEEPLNGESYESCCPTSR [S4G] | 3.5 |
| PCCDSSPEEPLNGESYESCCPTSR [S4D] | 4.42 |
| PCCTSSPEEPLNGESYESCCPTSR [S4T] | 4.13 |
| PCCMSSPEEPLNGESYESCCPTSR [S4M] | 3.19 |
| PCCASSPEEPLNGESYESCCPTSR [S4A] | 3.72 |
| PCCISSPEEPLNGESYESCCPTSR [S4I] | 3.81 |
| PCCFSSPEEPLNGESYESCCPTSR [S4F] | 3.33 |
| PCCCSSPEEPLNGESYESCCPTSR [S4C] | 1.94 |
| PCCNSSPEEPLNGESYESCCPTSR [S4N] | 3.95 |
| PCCHSSPEEPLNGESYESCCPTSR [S4H] | 4.21 |
| PCCVSSPEEPLNGESYESCCPTSR [S4V] | 4.1 |
| PCCWSSPEEPLNGESYESCCPTSR [S4W] | 3.85 |
| PCCSSHPEEPLNGESYESCCPTSR [S6H] | 3.4 |
| PCCSSMPEEPLNGESYESCCPTSR [S6M] | 3.57 |
| PCCSSEPEEPLNGESYESCCPTSR [S6E] | 4.01 |
| PCCSSAPEEPLNGESYESCCPTSR [S6A] | 3.22 |
| PCCSSFPEEPLNGESYESCCPTSR [S6F] | 3.13 |

| Variant | protein stability index |
| --- | --- |
| PCCSSPPEEPLNGESYESCCPTSR [S6P] | 3.76 |
| PCCSSCPEEPLNGESYESCCPTSR [S6C] | 3.63 |
| PCCSSKPEEPLNGESYESCCPTSR [S6K] | 3.18 |
| PCCSSNPEEPLNGESYESCCPTSR [S6N] | 3.81 |
| PCCSSDPEEPLNGESYESCCPTSR [S6D] | 3.92 |
| PCCSSIPEEPLNGESYESCCPTSR [S6I] | 3.7 |
| PCCSSGPEEPLNGESYESCCPTSR [S6G] | 3.53 |
| PCCSSLPEEPLNGESYESCCPTSR [S6L] | 2.91 |
| PCCSCSPEEPLNGESYESCCPTSR [S5C] | 3.38 |
| PCCSQSPEEPLNGESYESCCPTSR [S5Q] | 3.6 |
| PCCSASPEEPLNGESYESCCPTSR [S5A] | 3.49 |
| PCCSRSPEEPLNGESYESCCPTSR [S5R] | 3.28 |
| PCCSVSPEEPLNGESYESCCPTSR [S5V] | 4.45 |
| PCCSDSPEEPLNGESYESCCPTSR [S5D] | 4.85 |
| PCCSYSPEEPLNGESYESCCPTSR [S5Y] | 2.6 |
| PCCSNSPEEPLNGESYESCCPTSR [S5N] | 3.47 |
| PCCSISPEEPLNGESYESCCPTSR [S5I] | 3.4 |
| PCCSMSPEEPLNGESYESCCPTSR [S5M] | 2.53 |
| PCCSWSPEEPLNGESYESCCPTSR [S5W] | 3.02 |
| PCCSTSPEEPLNGESYESCCPTSR [S5T] | 3.9 |
| PCCSPSPEEPLNGESYESCCPTSR [S5P] | 3.49 |
| PCCSFSPEEPLNGESYESCCPTSR [S5F] | 2.48 |
| PCCSESPEEPLNGESYESCCPTSR [S5E] | 4.24 |
| PCCSHSPEEPLNGESYESCCPTSR [S5H] | 4.12 |

| Variant | protein stability index |
| --- | --- |
| PCCSLSPEEPLNGESYESCCPTSR [S5L] | 3.02 |
| PCCSKSPEEPLNGESYESCCPTSR [S5K] | 2.85 |
| PCCSGSPEEPLNGESYESCCPTSR [S5G] | 3.66 |
| PCTSSSPEEPLNGESYESCCPTSR [C3T] | 5.06 |
| PCMSSSPEEPLNGESYESCCPTSR [C3M] | 5.05 |
| PCPSSSPEEPLNGESYESCCPTSR [C3P] | 4.95 |
| PCRSSSPEEPLNGESYESCCPTSR [C3R] | 4.23 |
| PCDSSSPEEPLNGESYESCCPTSR [C3D] | 5.82 |
| PCNSSSPEEPLNGESYESCCPTSR [C3N] | 4.75 |
| PCVSSSPEEPLNGESYESCCPTSR [C3V] | 5 |
| PCFSSSPEEPLNGESYESCCPTSR [C3F] | 4.83 |
| PCSSSSPEEPLNGESYESCCPTSR [C3S] | 5.22 |
| PCKSSSPEEPLNGESYESCCPTSR [C3K] | 4.7 |
| PCWSSSPEEPLNGESYESCCPTSR [C3W] | 4.79 |
| PCLSSSPEEPLNGESYESCCPTSR [C3L] | 4.76 |
| PCESSSPEEPLNGESYESCCPTSR [C3E] | 5.27 |
| PCQSSSPEEPLNGESYESCCPTSR [C3Q] | 5.4 |
| PCYSSSPEEPLNGESYESCCPTSR [C3Y] | 4.66 |
| PCHSSSPEEPLNGESYESCCPTSR [C3H] | 4.85 |
| PCISSSPEEPLNGESYESCCPTSR [C3I] | 4.19 |
| PCGSSSPEEPLNGESYESCCPTSR [C3G] | 4.91 |
| PCASSSPEEPLNGESYESCCPTSR [C3A] | 4.02 |
